Data: US20210380703A1 (RIGEL PHARMACEUTICALS, published 2021)
Residue numbers refer to the chain shown, from its start.

B1: 367_A12 (antibody, V domains shown)
VH: EVQLLESGGGLVQPGGSLRLSCAASGFTFSSYGMNWVRQAPGKGLEWVSGINYNSGYTSYADSVKGRFTISRDNSKNTLYLQMNSLRAEDTAVYYCARGANWHDTHLDYWGQGTLVTVSS
VL: DIQMTQSPSSLSASVGDRVTITCRASQSILSYLNWYQQKPGKAPKLLIYAATSLHSGVPSRFSGSGSGTDFTLTISSLQPEDFATYYCQQSYNNPLTFGGGTKVEIK
notes: Group III
B2: 367_B01 (antibody, V domains shown)
VH: B1 VH with G33S, S49A, S55G, T58K, S59G, H106A
VL: B1 VL with L30S, L33V, L47V, L54R, H55A, N93S, N94T
notes: Group III
B3: 367_B04 (antibody, V domains shown)
VH: B1 VH with S30D, G33S, T58K
VL: B1 VL with L54R, H55A, N93E, N94L
notes: Group III
B4: 367_B12 (antibody, V domains shown)
VH: B1 VH with N35H, S49A, G50S, S55G, T58K
VL: B1 VL with L33V, L47V, H55A, N93D, N94T
notes: Group III
B5: 367_C07 (antibody, V domains shown)
VH: B1 VH with G33S, G50S, S59G
VL: B1 VL with S31T, L33V, L54R, H55A, N94L
notes: Group III
B6: 367_C10 (antibody, V domains shown)
VH: B1 VH with S30D, G33S, S55G, H106A
VL: B1 VL with L30V, L33V, A51V, L54R, H55A, N93E, N94T
notes: Group III
B7: 367_D03 (antibody, V domains shown)
VH: B1 VH with S30D, G33S, G50S, S55G, S59G
VL: B1 VL with L30I, S31T, L54R, H55A, N93D, N94T
notes: Group III
B8: 367_D06 (antibody, V domains shown)
VH: B1 VH with S30D, G33S, S49A, S55G
VL: B1 VL with L30S, S31T, L47V, H55A, N94S
notes: Group III
B9: 367_D08 (antibody, V domains shown)
VH: B1 VH with S31D, G33S, S49A, S55G
VL: B1 VL with L47V, L54R, Y92D, N93D, N94L
notes: Group III
B10: 367_D12 (antibody, V domains shown)
VH: B1 VH with G33S, G50S, S55G, S59G
VL: B1 VL with L30V, L33V, L47V, L54R, H55A, N93E, N94S
notes: Group III
B11: 367_E05 (antibody, V domains shown)
VH: B1 VH with S49A, S55G
VL: B1 VL with L54R, N93D, N94S
notes: Group III
B12: 367_F01 (antibody, V domains shown)
VH: B1 VH with S30D, G33S, G50N, S55G, T58K
VL: not shown
notes: Group III
B13: 367_G01 (antibody, V domains shown)
VH: B1 VH with S30D, S49A, G50S, S59G
VL: B1 VL with L30S, L47V, L54R, H55A, N93D, N94L
notes: Group III
B14: 367_G04 (antibody, V domains shown)
VH: B1 VH with G33S, S49A
VL: B1 VL with L47V, L54R, H55A, N93D, N94S
notes: Group III
B15: 367_H02 (antibody, V domains shown)
VH: B1 VH with S30D, G50S, S55G, S59G
VL: not shown
notes: Group III
B16: 367_H03 (antibody, V domains shown)
VH: B1 VH with S49A
VL: B1 VL with L30I, S31T, L33V, H55A, N93D, N94L
notes: Group III
B17: 368_A03 (antibody, V domains shown)
VH: B1 VH with G33S, S55G, S59G
VL: B1 VL with L30I, A51V, L54R, H55A, N93E
notes: Group III
B18: 368_A04 (antibody, V domains shown)
VH: B1 VH with S30D, S31D, G33S, S49A, S55G, T58K
VL: B1 VL with S31T, L47V, A51V, L54R, H55A, N93E, N94L
notes: Group III
B19: 368_B09 (antibody, V domains shown)
VH: B1 VH with S30D, G50N, S55G, T58K, S59G
VL: B1 VL with L54R, N93D, N94T
notes: Group III
B20: 368_C08 (antibody, V domains shown)
VH: B1 VH with S31D, G33S, S55G
VL: B1 VL with S31T, L33V, T52S, H55Q, N93S, N94T
notes: Group III
B21: 368_E12 (antibody, V domains shown)
VH: B1 VH with S31D, S49A, S55G
VL: B1 VL with L30V, L33V, L47V, A51V, L54R, H55A, N93D, N94S
notes: Group III
B22: 368_F09 (antibody, V domains shown)
VH: B1 VH
VL: B1 VL with S31T, T52S, H55Q, N93E, N94T
notes: Group III
B23: 368_H02 (antibody, V domains shown)
VH: B1 VH with S49A, H106A
VL: B1 VL with L30V, S31T, L47V, L54R, H55A, N93E, N94S
notes: Group III
B24: 368_H05 (antibody, V domains shown)
VH: B1 VH with G33S, S49A, G50N, S55G, T58K
VL: B1 VL with L30V, L33V, L47V, A51T, L54R, H55A, N93E, N94S
notes: Group III
B25: 369_A07 (antibody, V domains shown)
VH: B1 VH with G33S, S49A, S55G, T58K, S59G, H106A
VL: B1 VL with L47V, L54R, H55A, N93E, N94S
notes: Group III
B26: 369_B05 (antibody, V domains shown)
VH: B1 VH with S30D, G33S, S55G, T58K
VL: B1 VL with L30I, H55A, N93D, N94T
notes: Group III
B27: 369_C05 (antibody, V domains shown)
VH: B1 VH with S30D, G33S, S49A, S55G, H106A
VL: B1 VL with L30S, L33V, L47V, A51T, L54R, N94S
notes: Group III
B28: 369_D03 (antibody, V domains shown)
VH: B1 VH with G33S, S55G
VL: B1 VL with S31T, L47V, L54R, H55A, N93E
notes: Group III
B29: 369_D07 (antibody, V domains shown)
VH: B1 VH with S55G, T58K
VL: B1 VL with L30V, L47V, L54R, H55A, N93D, N94L
notes: Group III
B30: 369_D09 (antibody, V domains shown)
VH: B1 VH with S31D, G50N, S55G, H106A
VL: B1 VL with S31T, L54R, H55A, N93D, N94S
notes: Group III
B31: 369_E06 (antibody, V domains shown)
VH: B1 VH with S55G, H106A
VL: B1 VL with L30I, L47V, L54R, N93D, N94S
notes: Group III
B32: 369_G08 (antibody, V domains shown)
VH: B1 VH with S30D, G33S, G50S, S55G, T58K, S59G
VL: not shown
notes: Group III
B33: 370_A02 (antibody, V domains shown)
VH: B1 VH with S30D, S49A, S55G, S59G, H106A
VL: B1 VL with L30V, S31T, L47V, L54R, H55A, N93D, N94S
notes: Group III
B34: 370_B03 (antibody, V domains shown)
VH: B1 VH with G33S, S49A, G50N, S55G, S59G, H106A
VL: B1 VL with L47V, L54R, H55A
notes: Group III

These binders were tested against T1, human ACVR2A (human, UniProt P27037 20-135, limits assumed) (assay: ELISA).
T1 construct: coated antigen of the initial ELISA; also called activin receptor, type II A
T1 sequence (P27037 20-135 limits assumed): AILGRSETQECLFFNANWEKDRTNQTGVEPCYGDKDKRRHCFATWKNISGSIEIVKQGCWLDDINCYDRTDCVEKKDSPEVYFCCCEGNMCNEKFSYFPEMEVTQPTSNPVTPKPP
Procedure, shortened: (§1)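 Monoclonal antibodies were first applied to human or mouse ACVR2A, alongside biotinylated goat anti-human kappa light chain (positive control) and human Fc (negative control); binding was then determined by ELISA.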
Also: test concentration or dose not given here.

Binder	optical density
B1	2.44 OD
B2	2.84 OD
B3	2.66 OD
B4	3.02 OD
B5	2.47 OD
B6	2.53 OD
B7	2.59 OD
B8	2.04 OD
B9	2.18 OD
B10	2.44 OD
B11	2.35 OD
B12	2.42 OD
B13	1.8 OD
B14	2.98 OD
B15	1.08 OD
B16	2.04 OD
B17	2.83 OD

Binder	optical density
B18	2.35 OD
B19	2.54 OD
B20	2.26 OD
B21	1.29 OD
B22	2.39 OD
B23	2.41 OD
B24	1.95 OD
B25	3.55 OD
B26	2.78 OD
B27	2.54 OD
B28	3.28 OD
B29	3.07 OD
B30	3.3 OD
B31	3.13 OD
B32	3.3 OD
B33	2.9 OD
B34	3.71 OD

What follows are binders tested against T2, mouse ACVR2A (mouse, UniProt P27038 20-135, limits assumed) (assay: ELISA).
T2 construct: coated antigen of the initial ELISA
T2 sequence (P27038 20-135 limits assumed): as the sequence (P27037 20-135 limits assumed) above, with K20R, V73I counted along it
Procedure, shortened: as §1

Binder	optical density
B1	2.42 OD
B2	2.91 OD
B3	3.1 OD
B4	3.03 OD
B5	2.52 OD
B6	2.61 OD
B7	2.45 OD
B8	2.35 OD
B9	2.37 OD
B10	2.69 OD
B11	2.64 OD
B12	2.76 OD
B13	1.94 OD
B14	3.04 OD
B15	1.2 OD
B16	2.2 OD
B17	2.83 OD

Binder	optical density
B18	2.35 OD
B19	2.81 OD
B20	2.43 OD
B21	1.55 OD
B22	2.45 OD
B23	2.54 OD
B24	2.2 OD
B25	3.56 OD
B26	3.06 OD
B27	2.72 OD
B28	3.55 OD
B29	2.91 OD
B30	3.05 OD
B31	3.11 OD
B32	3.49 OD
B33	2.91 OD
B34	3.57 OD

These binders were tested against T3, biotinylated goat anti-human kappa light chain (assay: ELISA, positive control).
T3 construct: positive control of the ELISA
Protocol: The binding of ACVR2A-specific monoclonal antibodies to human ACVR2A, mouse ACVR2A, biotinylated goat anti-human kappa light chain (positive control) and human Fc (negative control) were determined by ELISA.

Binder	optical density
B1	3.65 OD
B2	3.67 OD
B3	3.34 OD
B4	3.75 OD
B5	3.41 OD
B6	3.39 OD
B7	3.46 OD
B8	3.25 OD
B9	3.5 OD
B10	3.57 OD
B11	3.47 OD
B12	3.72 OD
B13	3.58 OD
B14	3.36 OD
B15	3.62 OD
B16	3.34 OD
B17	3.41 OD

Binder	optical density
B18	3.56 OD
B19	3.43 OD
B20	3.38 OD
B21	3.65 OD
B22	3.58 OD
B23	3.58 OD
B24	3.34 OD
B25	3.42 OD
B26	3.44 OD
B27	3.02 OD
B28	3.61 OD
B29	3.26 OD
B30	3.45 OD
B31	3.52 OD
B32	3.58 OD
B33	3.62 OD
B34	3.61 OD
